From IntAct's records for PubMed 15611062

B1: Large T antigen (Simian virus 40), P03070 (parent)
chain: MDKVLNREESLQLMDLLGLERSAWGNIPLMRKAYLKKCKEFHPDKGGDEEKMKKMNTLYKKMEDGVKYAHQPDFGGFWDATEIPTYGTDEWEQWWNAFNEENLFCSEEMPSSDDEATADSQHSTPPKKKRKVEDPKDFPSELLSFLSHAVFSNRTLACFAIYTTKEKAALLYKKIMEKYSVTFISRHNSYNHNILFFLTPHRHRVSAINNYAQKLCTFSFLICKGVNKEYLMYSALTRDPFSVIEESLPGGLKEHDFNPEEAEETKQVSWKLVTEYAMETKCDDVLLLLGMYLEFQYSFEMCLKCIKKEQPSHYKYHEKHYANAAIFADSKNQKTICQQAVDTVLAKKRVDSLQLTREQMLTNRFNDLLDRMDIMFGSTGSADIEEWMAGVAWLHCLLPKMDSVVYDFLKCMVYNIPKKRYWLFKGPIDSGKTTLAAALLELCGGKALNVNLPLDRLNFELGVAIDQFLVVFEDVKGTGGESRDLPSGQGINNLDNLRDYLDGSVKVNLEKKHLNKRTQIFPPGIVTMNEYSVPKTLQARFVKQIDFRPKDYLKHCLERSEFLLEKRIIQSGIALLLMLIWYRPVAEFAQSIQSRIVEWKERLDKEFSLSVYQKMKFNVAMGIGVLDWLRNSDDDDEDSQENADKNEDGGEKNMEDSGHETGIDSQSQGSFQAPQSSQSVHDHNQPYHICRGFTCFKKPPTPPPEPET

Variants of: B1
Settings: with fbw1b_human FBXW11, Q9UKB1
Chain of fbw1b_human FBXW11, Q9UKB1 (Q9UKB1 whole entry): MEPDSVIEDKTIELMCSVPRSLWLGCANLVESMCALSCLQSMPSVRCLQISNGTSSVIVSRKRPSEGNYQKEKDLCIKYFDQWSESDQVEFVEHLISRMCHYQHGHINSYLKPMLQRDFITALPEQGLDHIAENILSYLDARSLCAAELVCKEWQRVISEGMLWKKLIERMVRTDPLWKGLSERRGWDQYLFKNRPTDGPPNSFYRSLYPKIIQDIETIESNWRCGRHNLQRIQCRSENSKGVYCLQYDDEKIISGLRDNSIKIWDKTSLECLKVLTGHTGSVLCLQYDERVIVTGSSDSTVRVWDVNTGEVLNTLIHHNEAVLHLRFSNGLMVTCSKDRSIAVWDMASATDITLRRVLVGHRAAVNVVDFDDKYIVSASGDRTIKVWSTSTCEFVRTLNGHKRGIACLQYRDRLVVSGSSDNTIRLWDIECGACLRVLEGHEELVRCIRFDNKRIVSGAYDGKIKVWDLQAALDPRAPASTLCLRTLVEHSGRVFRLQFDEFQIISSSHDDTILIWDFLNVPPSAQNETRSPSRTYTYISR

Variant	effect of a mutation on the interaction
T701A;E705A	decreasing interaction

Variants of: B1
Settings: with fbw1a_human BTRC

Variant	effect of a mutation on the interaction
T701A;E705D	decreasing interaction

Variants of: B1
Settings: with fbxw7_human FBXW7, Q969H0
Chain of fbxw7_human FBXW7, Q969H0 (Q969H0 whole entry): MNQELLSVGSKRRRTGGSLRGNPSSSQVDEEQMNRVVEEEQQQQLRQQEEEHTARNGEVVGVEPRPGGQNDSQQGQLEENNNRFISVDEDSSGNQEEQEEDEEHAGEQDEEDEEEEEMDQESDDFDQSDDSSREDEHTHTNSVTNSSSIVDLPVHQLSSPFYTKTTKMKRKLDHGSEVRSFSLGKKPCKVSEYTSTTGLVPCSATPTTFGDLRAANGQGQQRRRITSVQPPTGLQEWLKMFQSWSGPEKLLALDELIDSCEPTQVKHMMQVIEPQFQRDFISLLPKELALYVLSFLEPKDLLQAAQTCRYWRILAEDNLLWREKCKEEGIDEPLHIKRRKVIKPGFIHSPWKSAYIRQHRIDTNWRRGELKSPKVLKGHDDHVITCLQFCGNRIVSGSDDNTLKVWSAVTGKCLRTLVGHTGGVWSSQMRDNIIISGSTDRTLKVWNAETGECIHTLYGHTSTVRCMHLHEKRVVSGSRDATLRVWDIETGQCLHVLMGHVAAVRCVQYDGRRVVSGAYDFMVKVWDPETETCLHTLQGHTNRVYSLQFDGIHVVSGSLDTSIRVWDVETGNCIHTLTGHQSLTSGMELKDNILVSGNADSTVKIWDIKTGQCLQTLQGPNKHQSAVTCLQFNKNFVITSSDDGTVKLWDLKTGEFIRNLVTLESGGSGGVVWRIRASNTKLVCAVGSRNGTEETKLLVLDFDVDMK

Variant	effect of a mutation on the interaction
T701A	decreasing interaction
